The source of these data is patent US11994512B2, “Single-cell genomic methods to generate ex vivo cell systems that recapitulate in vivo biology with improved fidelity” (Massachusetts Institute of Technology, priority 2018, dated 2024).

The labels stand for the following.
B1: Q91WU0 (protein, UniProt Q91WU0 1-561, looked up)
chain: MFLSTLFLVSLATCVICGNPSSPPVVDTAHGKVLGKHVNVEGFSQPVAVFLGIPFAKPPLGSLRFAPPQPAEPWSSVKNATTYPPMCSQDAARGQAVNDLITNRKEKIHLEFSEDCLYLNIYTPADFSKNSRLPVMVWIHGGGLKLGGASSFDGRALSAYENVVVVAIQYRLSIWGFFSTGDEHSRGNWGHLDQVAALHWVQDNIANFGGDPGSVTIFGESAGGYSVSILILSPLSKNLFHRAISESGVAFIPGMFTKDVRPITEQIAVTAGCKTTTSAVIVHCMRQKTEEELLEIMHKLNLYKLSLQGDTKNSDQFVTSVLDGVVLPKDPKEILAEKNFNTVPYIVGINKQECGWLLPTMTGFLPADVKLDKKKAIALLEQFASMTGIPEDIIPVAVEKYTKGSDDPDQIREGVLDAMGDVAFGVPSVIVSRGHRDTGAPTYMYEYQYYPSFSSPQRPKNVVGDHADDVYSVFGAPILREGASEEEINLSKMVMKFWANFARNGNPNGKGLPHWPKYDQKEGYLHIGGTTQQAQRLKEEEVTFWTQSLAKKQPQPYHNEL
modifications: full-length
B2: Q921T2 (protein, UniProt Q921T2 1-595, looked up)
chain: MAGERWQAEGPGEGWAIYVTPRAPIREGRRRLDPRNGDSSDAPAYGAHPSRRGRREVRFSEEPAEVYGDFEPRAAKERSPGGRRTPPEKFRPASAGEEVRESAYNLRSRPRRQRRAQEAEEMKTRRSARLEQHSQQPQLSPATSGRGLRDSPSSSEDREEDEPSSRPVTSQTASKKTLRTPEASVMNEDPISNLCRPPLRSPRLDSTYQTNGNTKTNEREATIVQQVNFFEEGETEDDLESSYSDITIRARSSDSLESRDEATPAAGNHPDSLRGLPHNQDFPAHENQPLLLTSGCQENPQEWVDRAVRMRSRMAYNNIQKSNFGNQSPSTSRPQSAIHHPNEPSVKIKWWLLGLVAILAVGLFWFFHTPAVETTAVQEFQNQMKQLQSKYQSQNEKLWKRGTTFLEKHLNSSLPRPQPAILLLTAAQDAAEVLKCLSEQIADAYSSFRSVRAIRIDGAGKAAQDSDLVKHEVDQELTDGFKNGQNAAVVHRFESLPAGSTLIFYKYCDHENAAFKDVALVLTVLLEEKTLEASLGLKEIEEKVRDFLKVKFTSSSTASSYNHMDPDKLNGLWSRISHLVLPVQPENTLKAGSCL
modifications: full-length
B3: Q920F6 (protein, UniProt Q920F6 1-1248, looked up)
chain: MGHLELLLVENFKSWRGRQVIGPFKRFTCIIGPNGSGKSNVMDALSFVMGEKTTNLRVKNIQELIHGAHTGKPVSSSASVTIIYIEDSGEEKTFTRIIRGGCSEYHFGDKPVSRSVYVAQLENIGIIVKAQNCLVFQGTVESISMKKPKERTQFFEEISTSGEFIGEYEAKKKKLQKAEEDAQFHFNVKKNVAAERKHAKIEKEEAEHYQNLLEELKINKIQLMLFQLYYNEEKINVLNTELEQMDGNLSVVKDTLSHHENIFKAKKKDYGMLTRQLQQTAKELKSVEAILNQKRPQYIKAKENTSHHLKKLDLSKKLITDNEKQCSKQEDGIRALVAELADLDRAWKSFEKQMEEKILQKGRDIELENSQLDRYKLLKEQVRRKVGIMTQQLEKLQWEQKAEKERLAFEKRRHGDTQGNLKQIKEQIEEHKKRIEKLEEYTKTCMDCLEDKKQQEEALKKEIENTKSRMSEVNEELSLIRNELQNAGIDNHEGKRQQKRAEVLEHLKRLYPDSVFGRLLDLCHPIHKKYQLAVTKLFGRYMVAIVVASEKIAKDCIRFLKAERAEPETFLALDYLDIKPINERLREIKGCKMMIDVIKTQFPQLKKVIQFVCGNGLVCETVEEARHIAFGGPERRKAVALDGTLFLKSGVISGGSSDLKHKALCWDEKELHNLRDKRSQLVQELKELMKTLRKETDLKQIQTLVQGTNTRLKYSQNELEMIKKKHLATFYREQSQLQSELLNIDSQCTMLSEGINKQQQKIEEFQDKIDEVEDDIFQDFCEEIGVENIREFENKHVKQQQENDQKRLEFEKQKTRLNIQLEYSRNQLKKKLNNIDTLKTTIQKGKEDIDNLKKTEEECLKIVEELMVKQEQIKEVLATQSSNIEKIHIQIEEERKKVLAVDREVGKLQKEVVIIQGSLEQKLLEKHNLLLDCKVQDIDISLVLGSLEDIIEMELTETESTQATADIYEKEASIQIDYSPLREDLKALQSDKEVEAHLTLLLQQVASQENTLLKTTAPNLRAQENLKTVRDKFQESADVFEASRKEARICRQEFEQVKRRRYDAFSQCFEHISVSIDQIYKKLCRNNSAQAFLSPENPEEPYLDGISYNCVAPGKRFMPMDNLSGGEKCVAALALLFAVHSFRPAPFFVLDEVDAALDNTNIGKVSSYIKEQSQEQFQMIIISLKEEFYSKADALIGVYPEHNECMFSHVLTLDLSKYPDTEDQEGSRSHRKPRVPRVSMSPKSPQSR
modifications: full-length
B4: Q91Y74 (protein, UniProt Q91Y74 1-333, looked up)
chain: MTSKSHWKLLALALVLVVVMVWYSISREDRYIEFFYFPISEKKEPCFQGEAERQASKIFGNRSREQPIFLQLKDYFWVKTPSTYELPFGTKGSEDLLLRVLAITSYSIPESIKSLECRRCVVVGNGHRLRNSSLGGVINKYDVVIRLNNAPVAGYEGDVGSKTTIRLFYPESAHFDPKIENNPDTLLVLVAFKAMDFHWIETILSDKKRVRKGFWKQPPLIWDVNPKQVRILNPFFMEIAADKLLSLPIQQPRKIKQKPTTGLLAITLALHLCDLVHIAGFGYPDASNKKQTIHYYEQITLKSMAGSGHNVSQEAIAIKRMLEMGAVKNLTYF
modifications: full-length
B5: Q8VI93 (protein, UniProt Q8VI93 1-1138, looked up)
chain: MDLFHTPAGALDKLVAHNLHPAPEFTAAVRGALGSLNITLQQHRARGSQRPRVIRIAKGGAYARGTALRGGTDVELVIFLDCFQSFGDQKTCHSETLGAMRMLLESWGGHPGPGLTFEFSQSKASRILQFRLASADGEHWIDVSLVPAFDVLGQPRSGVKPTPNVYSSLLSSHCQAGEYSACFTEPRKNFVNTRPAKLKNLILLVKHWYHQVQTRAVRATLPPSYALELLTIFAWEQGCGKDSFSLAQGLRTVLALIQHSKYLCIFWTENYGFEDPAVGEFLRRQLKRPRPVILDPADPTWDVGNGTAWRWDVLAQEAESSFSQQCFKQASGVLVQPWEGPGLPRAGILDLGHPIYQGPNQALEDNKGHLAVQSKERSQKPSNSAPGFPEAATKIPAMPNPSANKTRKIRKKAAHPKTVQEAALDSISSHVRITQSTASSHMPPDRSSISTAGSRMSPDLSQIPSKDLDCFIQDHLRPSPQFQQQVKQAIDAILCCLREKSVYKVLRVSKGGSFGRGTDLRGSCDVELVIFYKTLGDFKGQKPHQAEILRDMQAQLRHWCQNPVPGLSLQFIEQKPNALQLQLASTDLSNRVDLSVLPAFDAVGPLKSGTKPQPQVYSSLLSSGCQAGEHAACFAELRRNFINTCPPKLKSLMLLVKHWYRQVVTRYKGGEAAGDAPPPAYALELLTIFAWEQGCGEQKFSLAEGLRTILRLIQQHQSLCIYWTVNYSVQDPAIRAHLLCQLRKARPLVLDPADPTWNVGQGDWKLLAQEAAALGSQVCLQSGDGTLVPPWDVTPALLHQTLAEDLDKFISEFLQPNRHFLTQVKRAVDTICSFLKENCFRNSTIKVLKVVKGGSSAKGTALQGRSDADLVVFLSCFRQFSEQGSHRAEIISEIQAHLEACQQMHSFDVKFEVSKRKNPRVLSFTLTSQTLLDQSVDFDVLPAFDALGQLRSGSRPDPRVYTDLIHSCSNAGEFSTCFTELQRDFITSRPTKLKSLIRLVKYWYQQCNKTIKGKGSLPPQHGLELLTVYAWEQGGQNPQFNMAEGFRTVLELIVQYRQLCVYWTINYSAEDKTIGDFLKMQLRKPRPVILDPADPTGNLGHNARWDLLAKEATVYASALCCVDRDGNPIKPWPVKAAV
modifications: full-length
B6: Q8WUR0 (protein, UniProt Q8WUR0 1-141, looked up)
chain: MPIMVDDIMRLLCSISQERKMKAAVKHSGKGAMVAGAMAFVGGLVGGPPGIAVGGTVGGLLGAWMTSGQFKPVPQILMELPPAEQRKLVNEAMAIIGNLDWTDAVQLTALVMSNQAMQQRLLAMLTTYVTKELQAEIRYED
modifications: full-length
B7: Q921X9 (protein, UniProt Q921X9 1-517, looked up)
chain: MARAWGLLLAIGVVLPTWLSSTKVSSLIERISDPKDLKKLLRTRNNVLVLYSESEVAAESHLKLLSTVAQAVKGQGTVCWVDCGDAESRKLCKKMKVDLSPKDKKIELFHYQDGAFHMQYDRAVTLKSIVAFLKDPKGPPLWEEDPGAKDVVHIDSEKDFRRLLKREEKPLLMMFYAPWCSMCKRIMPHFQKAATQVRGHIVLAGMNVYPSEFENIKEEYNVRGYPTICYFEKGRFLFPYENYGSTAEDIVEWLKNPLPPQPQVPETPWADEGGSVYHLTDEDFDQFVKEHSSVLVMFHAPWCGHCKKMKPEFESAAEVLHGDAESSGVLAAVDATVNEALAGRFHISAFPTLKYFKNGEQQAVPALRTKKKFIEWMQNPEAPPPPEPTWEEQQTSVLHLVGDNFRDTLKKKKHTLVMFYAPWCPHCKKVIPHFTATADAFKEDRKIACAAVDCVKDKNQDLCQQEAVKAYPTFHYYHYGKLVEKYESDRTELGFTSFIRTLREGDLKRLEKRREEL
modifications: full-length

The first assay deals with intracellular proteome of ENR+CD and ENR organoids. Description: LC-MS/MS TMT proteomics of ENR+CD versus ENR organoids. In kind it is cell-based, C57BL/6 mice. As to conditions: ENR+CD versus ENR organoids, sample pairs in aggregate (n=4, 2 technical replicates from two biological donors).
Turning to B1, the “Average logFC” value is listed as −1.598.
Same read-out and setting: for B2 the value was 1.217; for B3, −1.932; for B4, −1.232.
The same measure, in the same setting: for B5 the value was 1.461; for B6, −1.514.
Same read-out and setting: for B7 the value was 1.302.

The assay is the same for the next values; noted with them: protein abundance ratio ENR+CD versus ENR organoids, sample pair M1-1; LC-MS/MS TMT proteomics.
Take B1: the “M1-1 Log2 Median Normalized” value was −1.5.
Same read-out and setting: for B2 the value was 1.233; for B3, −1.931.
On the same count and under the same terms, then B4, with −0.783.
As for B5, the “M1-1 Log2 Median Normalized” value is given as 1.378.
B6: the “M1-1 Log2 Median Normalized” value is −0.949.
On to B7, for which the “M1-1 Log2 Median Normalized” value came to 1.535.

The assay is the same for the next values; noted with them: protein abundance ratio ENR+CD versus ENR organoids, sample pair M1-2; LC-MS/MS TMT proteomics.
Regarding B1, the “M1-2 Log2 Median Normalized” value is on record as −1.991.
Regarding B2, the “M1-2 Log2 Median Normalized” value came out at 1.176.
Take B3: the “M1-2 Log2 Median Normalized” value is −0.989.
On the same count and under the same terms, then B4, with −1.258; and B5, with 0.979; and B6, with −1.798.
On the same count and under the same terms, then B7, with 1.138.

The same assay, now with this note: protein abundance ratio ENR+CD versus ENR organoids, sample pair M2-1; LC-MS/MS TMT proteomics.
For B1, the “M2-1 Log2 Median Normalized” value is −2.4445.
The same measure, in the same setting: for B2 the value was 1.0935; for B3, −2.1915; for B4, −1.9425.
Turning to B5, the “M2-1 Log2 Median Normalized” value is 1.6325.
Same read-out and setting: then B6, with −1.4995; and B7, with 1.0115.

Still in this assay, the particulars now being: protein abundance ratio ENR+CD versus ENR organoids, sample pair M2-2; LC-MS/MS TMT proteomics.
With B1, the “M2-2 Log2 Median Normalized” value is reported as −0.456.
On the same count and under the same terms, then B2, with 1.365; and B3, with −1.967.
Take B4: the “M2-2 Log2 Median Normalized” value is −0.946.
On to B5, for which the “M2-2 Log2 Median Normalized” value is reported as 1.853.
Same read-out and setting: for B6 the value was −1.811; for B7, 1.523.

Still in this assay, the particulars now being: up = enriched in ENR+CD, down = enriched in ENR; FDR<0.05 and log fold change cut-off.
On to B1, for which the change result is “down”.
The same measure, in the same setting: then B2, with “up”; and B3, with “down”; and B4, with “down”.
Same read-out and setting: for B5 the value was “up”; for B6, “down”.
Turning to B7, the change entry is recorded as “up”.
